The text below walks through data of patent US20040241163A1 (published 2004).

The labels stand for the following.
B2: secreted HCMV UL21.5 protein (UL21.5 activity in concentrated supernatant of wild-type HCMV-infected human fibroblasts) (other)
chain: APSQKSKRSVTVEQPSTSADGSNTTPSKNVTLSQGGSTTDGDEDYSGEYDVLITDGDGSEHQQPQKTDEHKENQAKENEKKIQ
modifications: highly glycosylated (sites not given)
notes: Not purified: tested as 300-fold concentrated serum-free culture medium of fibroblasts infected with wild-type AD169 virus; Secreted forms of 45 kDa and 25 kDa are cited; also called Wt supernatant; HCMV-infected cell supernatant

The target of assay [1] is B2. The assay can be described thus: summary in the description of the Scatchard analysis of Example 4 (rounded value).
Assay [2] has as its target B2. Nature of the assay: Scatchard analysis, 125I-RANTES (25-500 pM) with infected cell supernatant, PEG precipitation and filtration.
The target in another assay is T1, interferon-γ (UniProt P01579 24-166).
T1 construct: also called IFN-γ
T1 sequence: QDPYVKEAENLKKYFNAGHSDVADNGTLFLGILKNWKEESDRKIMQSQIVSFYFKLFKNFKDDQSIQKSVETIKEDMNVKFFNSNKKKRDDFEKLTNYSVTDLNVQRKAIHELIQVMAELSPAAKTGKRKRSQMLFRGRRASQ
The assay can be described thus: competition of unlabeled cytokine with 125I-RANTES for cross-linking to UL21.5.

For assay [3], the target named is B2. The assay can be described thus: EDC cross-linking of 125I-chemokine to infected cell supernatant, SDS-PAGE autoradiogram.

B1: RANTES (regulated upon activation, normal T cell expressed and secreted) (ligand)
chain: SPYSSDTTPCCFAYIARPLPRAHIKEYFYTSGKCSNPAVVFVTRKNRQVCANPEKKWVREYINSLEMS
modifications: also: 125I-labeled in tracer form, position not given here
notes: also called 125I-labeled RANTES; 125I-RANTES
Usually Kd stands for the constant that tells how readily two partners part at equilibrium. With B1, the Kd in assay [1] is 0.15 nM; in assay [2], 0.147 nM.

On to B2, for which, in the assay with interferon-γ, the binding result is “no binding”.

B3: MIP-1α (ligand)
chain: SLAADTPTACCFSYTSRQIPQNFIADYFETSSQCSKPGVIFLTKRSRQVCADPSEEWVQKYVSDLELSA
modifications: also: 125I-labeled in tracer form, position not given here
notes: also called MIP-1 alpha; 125I-labeled MIP-1α
On to B3, for which the binding result in assay [3] is recorded as “no binding (tested: 0.4 nM 125I-labeled chemokine)”.
